Data taken from the supplement of paper PMC7877785.
± gives the uncertainty stated by the source.

Assay: self-splicing fitness, log relative to wild type (ln ratio); higher = more splicing; Tetrahymena group I intron in knt gene, E. coli kanamycin selection, DiMSum; sequences stand for … in CUCUCU…GGAGGGAAAAGUUAUCAGGCAUGCACCUGGUAGCUAGUCUUUAAACCAAUAGAUUGCAUCGGUUUAAAAGGCAAGACCGUCAAAUUGCGGGAAAGGGGUCAACAGCCGUUCAGUACCAAGUCUCAGGGGAAACUUUGAGAUGGCCUUGCAAAGGGUAUGGUAAUAAGCUGACGGACAUGGUCCUAACCACGCAGCCAAGUCCUAAGUCAACAGAUCUUCUGUUGAUAUGGAUGCAGUUCACAGACUAAAUGUCGGUCGGGGAAGAUGUAUUCUUCUCAUAAGAUAUAGUCGGACCUCUCCUUAAUGGGAGCUAGCGGAUGAAGUGAUGCAACACUGGAGCCGCUGGGAACUAAUUUGUAUGCGAAAGUAUAUUGAUUAGUUUUGGAGUACUCGUGGUCG
How it was run: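 Colonies from six replicate transformations of E. coli BL21(DE3) were pooled and amplicon-sequenced on an Illumina HiSeq 2500. The library placed an intron with all eight P1ex-region nucleotides randomised inside the knt kanamycin-resistance gene on pET-22b(+), and cells grew overnight at 37°C or 30°C on LB agar with or without 25 μg/mL kanamycin (plus 100 μg/mL carbenicillin, 50 μM IPTG, 0.2% rhamnose). Fitness is the DiMSum error-weighted combination of wild-type-normalised replicate fold changes, kanamycin versus none.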

Row | Sequence | self-splicing fitness (ln) (30 °C) | self-splicing fitness (ln) (37 °C)
1 | GCGUAGCAAUAUUACGAAGC | -3.48 ± 0.3 | -1.67 ± 0.47
2 | GCGUAGCAAUAUUACGAAUG | -1.32 ± 0.11 | -0.603 ± 0.13
3 | GCGUAGCAAUAUUACGACAG | -2.66 ± 0.48 | -0.456 ± 0.44
4 | GCGUAGCAAUAUUACGACUU | -0.421 ± 0.11 | 0.154 ± 0.15
5 | GCGUAGCAAUAUUACGAGAG | -3.3 ± 0.28 | -3.27 ± 0.33
6 | GCGUAGCAAUAUUACGAGGU | -2.81 ± 0.36 | -2.62 ± 0.36
7 | GCGUAGCAAUAUUACGCAGU | -4.05 ± 0.34 | -2.28 ± 0.25
8 | GCGUAGCAAUAUUACGCAUU | -2.88 ± 0.2 | -2.58 ± 0.27
9 | GCGUAGCAAUAUUACGCCUG | -4.08 ± 0.42 | -3.13 ± 0.37
10 | GCGUAGCAAUAUUACGCGCG | -3.2 ± 0.26 | -2.42 ± 0.31
11 | GCGUAGCAAUAUUACGCUAU | -4.42 ± 0.42 | -2.46 ± 0.45
12 | GCGUAGCAAUAUUACGCUCU | -3 ± 0.46 | -1.59 ± 0.27
13 | GCGUAGCAAUAUUACGGAAA | -3.29 ± 0.37 | -0.0155 ± 0.18
14 | GCGUAGCAAUAUUACGGAGU | -2.88 ± 0.16 | -1.44 ± 0.14
15 | GCGUAGCAAUAUUACGGAUU | -1.59 ± 0.13 | -0.574 ± 0.15
16 | GCGUAGCAAUAUUACGGCCU | -0.557 ± 0.16 | -0.113 ± 0.25
17 | GCGUAGCAAUAUUACGUACU | -2.08 ± 0.15 | -0.552 ± 0.17
18 | GCGUAGCAAUAUUACGUCCA | -1.49 ± 0.099 | -0.365 ± 0.1
19 | GCGUAGCAAUAUUACGUCCC | -0.245 ± 0.24 | –
20 | GCGUAGCAAUAUUACGUGGG | -3.84 ± 0.22 | -3.04 ± 0.24
21 | GCGUAGCAAUAUUACGUUAA | -2.13 ± 0.23 | -1.74 ± 0.2
22 | GCGUAGCAAUAUUACGUUUC | -4.29 ± 0.34 | -1.83 ± 0.22
23 | GCGUAGCAAUAUUACGUUUU | -3.15 ± 0.14 | -1.8 ± 0.13
24 | GCUAAGCAAUAUUACGAGGA | -1.73 ± 0.11 | -0.693 ± 0.12

Row | Sequence | self-splicing fitness (ln) (30 °C) | self-splicing fitness (ln) (37 °C)
25 | GCUAAGCAAUAUUACGCAAC | -2.35 ± 0.42 | -0.352 ± 0.47
26 | GCUAAGCAAUAUUACGCAUA | -1.97 ± 0.11 | -1.5 ± 0.093
27 | GCUAAGCAAUAUUACGCCUG | -0.523 ± 0.16 | -1.55 ± 0.22
28 | GCUAAGCAAUAUUACGGAUU | -1.14 ± 0.068 | -1.12 ± 0.092
29 | GCUAAGCAAUAUUACGGGCA | -1.52 ± 0.098 | -1.11 ± 0.13
30 | GCUAAGCAAUAUUACGGUAG | -3.12 ± 0.21 | -3.35 ± 0.3
31 | GCUAAGCAAUAUUACGGUCU | -0.772 ± 0.083 | -1.06 ± 0.085
32 | GCUAAGCAAUAUUACGUAAU | -0.775 ± 0.088 | -0.189 ± 0.11
33 | GCUAAGCAAUAUUACGUCGA | -1.21 ± 0.11 | -0.619 ± 0.15
34 | GCUAAGCAAUAUUACGUUUA | -2.9 ± 0.24 | -1.69 ± 0.21
35 | GCUAAGCAAUAUUACGUUUG | -2.16 ± 0.09 | -0.954 ± 0.12
36 | GCUCAGCAAUAUUACGAACA | -0.688 ± 0.088 | -0.676 ± 0.1
37 | GCUCAGCAAUAUUACGAAGG | -0.909 ± 0.073 | -0.29 ± 0.1
38 | GCUCAGCAAUAUUACGAAGU | -1.63 ± 0.16 | -0.416 ± 0.15
39 | GCUCAGCAAUAUUACGAAUA | -1.02 ± 0.066 | -0.439 ± 0.072
40 | GCUCAGCAAUAUUACGACUA | -0.565 ± 0.17 | -0.247 ± 0.18
41 | GCUCAGCAAUAUUACGACUU | 0.064 ± 0.085 | -0.0421 ± 0.078
42 | GCUCAGCAAUAUUACGAUAA | -0.805 ± 0.092 | -0.579 ± 0.11
43 | GCUCAGCAAUAUUACGAUGA | -2.09 ± 0.2 | -2.26 ± 0.31
44 | GCUCAGCAAUAUUACGCACA | -1.05 ± 0.1 | 0.0263 ± 0.11
45 | GCUCAGCAAUAUUACGCACC | -1.94 ± 0.23 | 0.598 ± 0.24
46 | GCUCAGCAAUAUUACGCCAA | -1.52 ± 0.42 | –
47 | GCUCAGCAAUAUUACGCCUU | 0.0207 ± 0.11 | 0.141 ± 0.14
48 | GCUCAGCAAUAUUACGCGAU | -2.55 ± 0.15 | -1.51 ± 0.14

Row | Sequence | self-splicing fitness (ln) (30 °C) | self-splicing fitness (ln) (37 °C)
49 | GCUCAGCAAUAUUACGCGGG | -3.41 ± 0.2 | -2.78 ± 0.2
50 | GCUCAGCAAUAUUACGCUCU | -1.09 ± 0.082 | 0.39 ± 0.12
51 | GCUCAGCAAUAUUACGGGAA | -0.173 ± 0.099 | 0.252 ± 0.16
52 | GCUCAGCAAUAUUACGGGAG | -2.46 ± 0.12 | -1.22 ± 0.11
53 | GCUCAGCAAUAUUACGGUAG | -2.79 ± 0.26 | -1.89 ± 0.21
54 | GCUCAGCAAUAUUACGGUGU | -1.3 ± 0.062 | 0.0463 ± 0.076
55 | GCUCAGCAAUAUUACGUAUG | -2.44 ± 0.076 | -1.62 ± 0.091
56 | GCUCAGCAAUAUUACGUAUU | -0.945 ± 0.053 | -0.23 ± 0.068
57 | GCUCAGCAAUAUUACGUCUG | -2.36 ± 0.094 | -1.99 ± 0.11
58 | GCUCAGCAAUAUUACGUGUU | -0.538 ± 0.055 | 0.555 ± 0.064
59 | GCUCAGCAAUAUUACGUUCC | -0.532 ± 0.062 | -0.507 ± 0.088
60 | GCUGAGCAAUAUUACGAAGG | – | -1.52 ± 0.28
61 | GCUGAGCAAUAUUACGACAA | -3.36 ± 0.45 | -1.07 ± 0.39
62 | GCUGAGCAAUAUUACGACCC | – | -0.524 ± 0.39
63 | GCUGAGCAAUAUUACGAGCA | -1.54 ± 0.14 | -1.34 ± 0.15
64 | GCUGAGCAAUAUUACGAUCA | – | -1.55 ± 0.35
65 | GCUGAGCAAUAUUACGAUUU | -1.04 ± 0.08 | -0.288 ± 0.096
66 | GCUGAGCAAUAUUACGCCUC | -1.67 ± 0.42 | -1.53 ± 0.49
67 | GCUGAGCAAUAUUACGGAUC | -1.43 ± 0.087 | -0.415 ± 0.12
68 | GCUGAGCAAUAUUACGGUGG | -3.32 ± 0.22 | -3.95 ± 0.37
69 | GCUGAGCAAUAUUACGUCUU | -1.91 ± 0.11 | -1.17 ± 0.15
70 | GCUGAGCAAUAUUACGUGGA | -2.09 ± 0.19 | -2.9 ± 0.31
71 | GCUGAGCAAUAUUACGUGUG | -3.29 ± 0.12 | -1.9 ± 0.1
72 | GCUGAGCAAUAUUACGUUUA | -2.35 ± 0.24 | -1.87 ± 0.25

Row | Sequence | self-splicing fitness (ln) (30 °C) | self-splicing fitness (ln) (37 °C)
73 | GCUUAGCAAUAUUACGAAAA | -1.6 ± 0.29 | -1.12 ± 0.28
74 | GCUUAGCAAUAUUACGAAGU | -3.26 ± 0.21 | -2.27 ± 0.21
75 | GCUUAGCAAUAUUACGAAUC | -0.244 ± 0.12 | -0.0191 ± 0.15
76 | GCUUAGCAAUAUUACGAAUU | -1.06 ± 0.076 | -0.24 ± 0.097
77 | GCUUAGCAAUAUUACGACCU | -0.423 ± 0.1 | 0.203 ± 0.14
78 | GCUUAGCAAUAUUACGACUG | -1.67 ± 0.1 | -0.937 ± 0.11
79 | GCUUAGCAAUAUUACGAUAG | -2.11 ± 0.096 | -0.174 ± 0.097
80 | GCUUAGCAAUAUUACGCCCG | -1.04 ± 0.15 | -0.534 ± 0.2
81 | GCUUAGCAAUAUUACGCCCU | -1.54 ± 0.11 | -0.719 ± 0.13
82 | GCUUAGCAAUAUUACGCCGG | -1.97 ± 0.2 | -1.44 ± 0.22
83 | GCUUAGCAAUAUUACGCGUG | -1.74 ± 0.1 | -1.64 ± 0.11
84 | GCUUAGCAAUAUUACGCUCC | -0.928 ± 0.15 | -1.09 ± 0.26
85 | GCUUAGCAAUAUUACGGACC | -1.17 ± 0.17 | 0.79 ± 0.22
86 | GCUUAGCAAUAUUACGGCCU | -1.05 ± 0.18 | -1.57 ± 0.25
87 | GCUUAGCAAUAUUACGGGAG | -2.42 ± 0.18 | -1.29 ± 0.18
88 | GCUUAGCAAUAUUACGGGUA | -1.43 ± 0.15 | -0.513 ± 0.12
89 | GCUUAGCAAUAUUACGUAGC | -3.12 ± 0.26 | -1.75 ± 0.26
90 | GCUUAGCAAUAUUACGUAGU | -1.2 ± 0.092 | -0.156 ± 0.11
91 | GCUUAGCAAUAUUACGUCCA | -1.72 ± 0.14 | -0.697 ± 0.14
92 | GCUUAGCAAUAUUACGUUAC | -2.56 ± 0.18 | -1.88 ± 0.19
93 | GCUUAGCAAUAUUACGUUAG | -1.56 ± 0.13 | -1.1 ± 0.15
94 | GCUUAGCAAUAUUACGUUCC | -0.313 ± 0.19 | -0.542 ± 0.23
95 | GCUUAGCAAUAUUACGUUCG | -0.857 ± 0.095 | -0.972 ± 0.11
96 | GCUUAGCAAUAUUACGUUUC | -1.2 ± 0.099 | -0.547 ± 0.11
